Source: patent US20240279288A1, “APPLICATION OF PLANT JAZ PROTEINS AND DERIVED POLYPEPTIDES IN PREVENTION AND TREATMENT OF HUMAN AND ANIMAL TUMORS” (ANYANG INSTITUTE OF SINO-COTTON INDUSTRY INNOVATION, priority 2021, published 2024)

Columns and labels:
GhNINJA [1] = assay: Yeast two hybrid with GhNINJA; type: binding, cotton
Procedure: The study on Arabidopsis had shown that the inhibition of JAZ protein on JA signaling was mainly achieved by inhibiting the transcription factor function of MYC, which had been experimentally verified by us in cotton. Based on the phylogenetic tree of Arabidopsis and cotton JAZs, we screened 6 cotton JAZs (GhJAZ1, GhJAZ7, GhJAZ9, GhJAZ10, GhJAZ11 and GhJAZ31), which were analyzed with GhMYC2, GhNINJA, GhTPL, GhHDA6, and GhCOI1 for yeast two hybrid. The amino acid sequence of GhJAZ1 was set forth in SEQ ID No. 4, and the corresponding encoding gene sequence was set forth in SEQ ID No. 39; the amino acid sequence of GhJAZ7 was set forth in SEQ ID No. 7, and the corresponding encoding gene sequence was set forth in SEQ ID No. 42; the amino acid sequence of GhJAZ9 was set forth in SEQ ID No. 2, and the corresponding encoding gene sequence was set forth in SEQ ID No. 37; the amino acid sequence of GhJAZ10 was set forth in SEQ ID No. 3, and the corresponding encoding gene sequence was set forth in SEQ ID No. 38; the amino acid sequence of GhJAZ11 was set forth in SEQ ID No. 5, and the corresponding encoding gene sequence was set forth in SEQ ID No. 40; and the amino acid sequence of GhJAZ31 was set forth in SEQ ID No. 9, and the corresponding encoding gene sequence was set forth in SEQ ID No. 44. […]

lung cancer cells A549 = assay: CCK8 cell viability detection, A549; type: cell-based, human; conditions: CCK8, 24 h treatment; read-out: IC50, inhibition of A549 cells
Procedure: (§1) CCK8 cell viability detection: cell suspension was seeded in 96-well plates at a concentration of 5×10^4 cells/ml (100 μL/well). The plates were placed in the incubator for pre-culture (at 37° C., 5% CO2), and control and protein agents were added to each well 24 h after seeding. The plates were then placed in the incubator for 24 h, followed by addition of 10 μL CCK8 solution into each well and incubation of the plates in the incubator for 0.5-2 h before the absorbance measurement at 450 nm using a microplate reader.
(§2) Analysis of effect of GhJAZ1 protein on the cell cycle and apoptosis of tumor cells

GhNINJA [2] = assay: Luciferase experiment in tobacco leaves with GhNINJA; type: binding, cotton; conditions: no fluorescence on the control
Source text: Method of the luciferase experiment: GhJAZ1 (corresponding encoding gene sequence set forth in SEQ ID No. 39) was subcloned into pCAMBIA-CLuc vector (Chen, H., et al. “Firefly Luciferase Complementation Imaging Assay for Protein-Protein Interactions in Plants.” Plant Physiology 146.2(2008):368-376.) between KpnI and SalI cleavage sites, and the transcription factors such as GhMYC2 (corresponding encoding gene sequence set forth in SEQ ID No. 72), GhNINJA (corresponding encoding gene sequence set forth in SEQ ID No. 74), and GhCOI1 (corresponding encoding gene sequence set forth in SEQ ID No. 80) were subcloned into pCAMBIA-NLuc (Chen, H., et al. “Firefly Luciferase Complementation Imaging Assay for Protein-Protein Interactions in Plants.” Plant Physiology 146.2(2008):368-376.) between KpnI and SalI cleavage sites, respectively. […] Luciferase substrates were applied at the infected leaves before taking images and placed in a dark room for at least 6 min to quench fluorescence, followed by observation on the Nightowl-II LB983 instrument, using IndigoBasic software under the luciferase-5 min setting conditions.

[3] = tested on: cervical cancer cells Hela; assay: CCK8 cell viability detection, Hela; type: cell-based, human; conditions: CCK8, 24 h treatment; read-out: IC50, inhibition of Hela cells
Procedure: as §1, §2

GhNINJA, sequence (as listed by the source): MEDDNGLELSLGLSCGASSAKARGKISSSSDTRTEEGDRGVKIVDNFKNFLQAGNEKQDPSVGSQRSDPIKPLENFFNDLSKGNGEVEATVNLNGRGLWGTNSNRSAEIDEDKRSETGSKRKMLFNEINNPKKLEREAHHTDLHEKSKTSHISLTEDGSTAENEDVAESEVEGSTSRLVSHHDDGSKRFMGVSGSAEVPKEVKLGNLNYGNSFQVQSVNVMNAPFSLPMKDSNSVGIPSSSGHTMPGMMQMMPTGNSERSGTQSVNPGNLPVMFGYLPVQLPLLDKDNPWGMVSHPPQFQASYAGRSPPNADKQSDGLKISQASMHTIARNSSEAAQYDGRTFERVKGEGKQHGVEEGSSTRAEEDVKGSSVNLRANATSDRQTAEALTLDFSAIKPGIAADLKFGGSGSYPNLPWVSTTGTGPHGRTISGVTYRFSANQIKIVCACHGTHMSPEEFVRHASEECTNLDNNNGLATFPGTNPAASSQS

B1: GhJAZ1: cotton JAZ1 protein, gene number Gh_A05G0260, sequence SEQ ID No. 4; prokaryotically expressed with His tag, about 30 KD (protein)
chain: MSSCSESTAMKPARSPEKPSFAQTCNLLSQYLKEKGSFGDLSLGMTCNVEANGTPVVPPPTMNLFPLNDKSDDVCGRNGGNPKNLTSMDLFPQQAGLASKDDSPNKLEPQTAPMTIFYGGQVIVFNDFPANKAKEIMLLASNSSSQSNNSFNPIPFTSSIARSPIESSIGVPPTSKPVHPAQRAVPGDLPIARRASLHRFLEKRKDRITAKAPYQINNSAAAPSLSGDNKSWLGLAAQSP
modifications: His tag
notes: prokaryotically expressed with His tag, about 30 KD
GhNINJA [1]
  interaction with GhNINJA: interacted
Lung cancer cells A549
  IC50: 697 nM
GhNINJA [2]
  fluorescence with GhNINJA after applying luciferase substrate: stronger fluorescence
[3]
  IC50: 553 nM
